According to PMC3683152 (Neuron, 2013):

T1: Ptp10D-AP (Drosophila, UniProt P35992 43-1197)
T1 sequence (looked up): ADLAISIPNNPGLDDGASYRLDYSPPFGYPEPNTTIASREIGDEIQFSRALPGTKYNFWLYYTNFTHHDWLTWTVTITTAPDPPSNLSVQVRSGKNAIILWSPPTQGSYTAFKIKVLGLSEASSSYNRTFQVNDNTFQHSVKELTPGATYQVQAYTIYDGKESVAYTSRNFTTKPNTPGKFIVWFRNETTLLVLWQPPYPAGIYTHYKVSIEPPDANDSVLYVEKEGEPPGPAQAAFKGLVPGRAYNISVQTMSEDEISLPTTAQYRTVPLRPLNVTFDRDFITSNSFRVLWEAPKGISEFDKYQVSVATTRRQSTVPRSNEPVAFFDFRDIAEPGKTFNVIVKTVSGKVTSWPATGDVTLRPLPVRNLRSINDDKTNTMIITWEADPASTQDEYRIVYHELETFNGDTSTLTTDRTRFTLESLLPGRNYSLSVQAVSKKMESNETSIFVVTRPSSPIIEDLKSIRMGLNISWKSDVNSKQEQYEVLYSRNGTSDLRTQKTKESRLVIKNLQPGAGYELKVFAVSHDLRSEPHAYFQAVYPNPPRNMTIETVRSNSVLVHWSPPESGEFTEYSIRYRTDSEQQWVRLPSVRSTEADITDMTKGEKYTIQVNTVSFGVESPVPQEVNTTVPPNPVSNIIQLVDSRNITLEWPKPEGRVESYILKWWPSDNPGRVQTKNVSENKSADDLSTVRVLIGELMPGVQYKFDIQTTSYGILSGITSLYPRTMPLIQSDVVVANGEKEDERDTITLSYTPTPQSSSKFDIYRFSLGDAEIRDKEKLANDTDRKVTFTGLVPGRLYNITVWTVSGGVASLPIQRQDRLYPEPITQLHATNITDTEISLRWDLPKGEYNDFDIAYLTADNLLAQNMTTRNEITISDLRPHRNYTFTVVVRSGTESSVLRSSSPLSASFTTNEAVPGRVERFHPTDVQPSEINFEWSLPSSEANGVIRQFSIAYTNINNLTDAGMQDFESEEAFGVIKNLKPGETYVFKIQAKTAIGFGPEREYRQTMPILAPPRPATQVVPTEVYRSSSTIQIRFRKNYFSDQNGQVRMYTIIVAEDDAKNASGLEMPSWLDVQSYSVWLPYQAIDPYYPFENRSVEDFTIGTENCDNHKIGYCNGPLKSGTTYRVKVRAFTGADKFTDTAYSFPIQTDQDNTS


Key:
Dscam 7.13.25 isoform = assay: AlphaScreen or HTRF
Ptp10D-AP = target: T1, Ptp10D-AP; assay: AlphaScreen or HTRF

Row | fold signal of homophilic binding over heterophilic binding of 7.13.25 to 7.8.25 (Dscam 7.13.25 isoform) | signal-to-background ratio (Sas-Fc::10D-AP vs. Sas-Fc::69D-AP or Sas-Fc::blank) (Ptp10D-AP) | Molecule
1 | 178 fold | – | Dscam 7.13.25 isoform (natural protein)
2 | – | ~6 fold | Sas-Fc (Fc fusion, Drosophila, UniProt Q04164 42-1635, looked up) APAGEDAAATTMPPLDTTTDAPDAVAATTTPATTAAEQSSSISSITTEAADGSTTSTTTTTEAANKSNATETDFTTNVPVASSLPEETSVRSTSIEPITSTEPTTTPRQETEGPDQHMVFSNTEPDQSHIQHIPLRDEHAESSGADDATTEMQRQREQDQQQNELNQISNEQDDVVKDLNNFRHPATLITASNSNSEENVEIESDKQVETTTTAVPAAATSTSTEATGTPPTGTPATSTSTVPNEREEDPYHVHILSENHDRLAEHEDYQMLSTSTEESSTTSTTSTTNSTTESGIVAGIVVSQENKATAEPSTATESTSISTSTTTAATAATSTTSRARAMHMNDPEDEAATTIMPDSESVPVINIVEGQHMLQQEDQKDEEEEGVVKESESSSTTEASTTTTEPSPFVAFAGEGRSAGGGNDIELFLHHNGSTHEQLMDLSDVSMDGDQNEGSSKTESSTTSTTTTTAQPETEMPKIVEITASGDTMQRECLANNKSYKHGELMERDCDERCTCNRGDWMCEPRCRGLSYPRGSQRSMANPNCLEKMVEEDECCRVMECSEPQLEPTVVATEGAAPSTNGTGESAVTLPTTDDEATPKPRTDCHYNSGVYKFRERLEIGCEQICHCAEGGVMDCRPRCPERNHTRLDKCVYVKDPKDVCCQLELCDVTLDDHEQQPTPLQSNNNEDPEEIDPFRFQEQARDAGGAKPTCTFKGAEYDVGQQFRDGCDQLCICNEQGIHCAKLECPSNFGLDVQDPHCIRWEPVPADFKPSPPNCCPESMRCVDNGTCSYQGVQIENWSPVPANLTGCDQHCYCENGRVECRAACPPVPALPPADLPCHPALARLLPIPDDECCKHWMCAPQIPKIGGAGQDEETEATSTHSSIPANETTTTTATANKSTSIPSKVPQIKKDEEKRPPASGAFYPTLDGKPPKSIGGLGIFEKPEKPEKAHKKVQHQQQQHQQQEQQEQQQHQNDVIFDGDRTEEQEEPLPPNGGFVPFQFGQQHPHQPHLGPYGFYNPVKPVYEDYNPYEPYDINPNGTPQGKPPPVPTSQSDLFNILGAEQPGHPVHPGHGGPPRIHPGQTQKDNHNLGPQVRIEQILQHLQQTVPGGPPPPPPHQQHQSLTPQLHPQQQQISQQHPGHYVPIVHSGVPPPPPGHGIAIVDGQTVAYESYPVIPGLGVPQHHPQQHQTTPQQHLQQTILPSSSTTSGLSTQASEHSLHQNQGKLAKQQQSGANNLQPDIEVHTLEAIDPRSIRIVFTVPQVYVNLHGRVELRYSNGPSNDTSTWEQQIFAPPEDLIATSQMEFDLPSLEPNSLYKVKITLILRDLNSQPTSSIYTVKTPPERTITPPPPFPDYRPDFQDIFKNVEDPELTVSETNASWLQLTWKKLGDDQMEYVDGVQLRYKELTGMIYSSTPLIHRTLTSYTIQNLQPDTGYEIGLYYIPLAGHGAELRAGHMIKVRTAQKVDVYGFDVTVNVTKVKTQSVEISWNGVPYPEDKFVHIYRAIYQSDAGKEDSSVFKVAKRDSTTGTLIMDLKPGTKYRLWLEMYLTNGNTKKSNVVNFITKPGGPATPGKTGKLLTAGTDQPVGDYYGPL
